Laboratory results as given in patent US20150344570A1 (published 2015).

T1: FcγRIIa R (human, UniProt P12318 34-217)
T1 construct: extracellular domain; Soluble His-tagged extracellular domain expressed in FreeStyle293 cells; analyte in Biacore; also called FcgRIIa R; FcgRIIaR; not shown: His tag attached to the C terminus
T1 sequence (looked up): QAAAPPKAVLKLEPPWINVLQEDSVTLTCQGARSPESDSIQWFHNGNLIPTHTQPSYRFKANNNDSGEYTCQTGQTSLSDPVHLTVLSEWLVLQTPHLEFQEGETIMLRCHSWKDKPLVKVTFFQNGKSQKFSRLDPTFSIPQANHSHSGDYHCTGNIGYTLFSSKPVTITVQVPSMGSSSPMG

T2: FcγRIIb (human, UniProt P31994 43-217)
T2 construct: extracellular domain; Soluble His-tagged extracellular domain expressed in FreeStyle293 cells; analyte in Biacore; also called FcgRIIb; 2b; not shown: His tag attached to the C terminus
T2 sequence (looked up): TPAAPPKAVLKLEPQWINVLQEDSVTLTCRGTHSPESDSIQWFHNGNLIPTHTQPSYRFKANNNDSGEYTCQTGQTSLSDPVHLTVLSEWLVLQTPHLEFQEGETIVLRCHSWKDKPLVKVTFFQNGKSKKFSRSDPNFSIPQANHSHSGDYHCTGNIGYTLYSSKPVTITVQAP

T3: FcγRIIa R (extracellular domain, His tag at the C terminus) (human, UniProt P12318 34-217)
T3 construct: extracellular domain; Soluble analyte in Biacore; also called FcgRIIa R type; 2aR
T3 sequence (looked up): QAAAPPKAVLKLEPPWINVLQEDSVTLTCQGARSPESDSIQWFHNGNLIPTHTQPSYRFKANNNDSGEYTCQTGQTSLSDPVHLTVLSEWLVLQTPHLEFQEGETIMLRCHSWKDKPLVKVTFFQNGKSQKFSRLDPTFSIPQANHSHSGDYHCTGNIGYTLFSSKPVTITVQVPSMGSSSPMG


Key:
FcγRIIa R [1] = target: T1, FcγRIIa R; test: SPR (Biacore), antibody captured via antigen peptide, FcγR as analyte
Experimental: (§1) The heterodimerized antibodies He Abs in which one of the H chains was introduced with an alteration were assayed for their binding activities to each activating FcγR and inhibitory FcγR according to the method described in Example 4. […] The activating FcγRs in FIGS. 26, 27, 28, and 29 are FcγRIa, FcγRIIa (R), FcγRIIa (H), and FcγRIIIa, respectively.
(§2) Analysis of interaction between objective antibody and the FcγR was carried out using Biacore T100 (GE Healthcare). HBS-EP+ (GE Healthcare) was used as the running buffer, and the measurement temperature was set to 25° C. Chips produced by immobilizing the antigen peptide by the amine coupling method to a Series S Sencor Chip CM5 (GE Healthcare), or alternatively, chips produced by allowing preliminarily biotinylated antigen peptides to interact with and immobilize onto a Series S Sensor Chip SA (certified) (GE Healthcare) were used. Antibodies of interest were captured onto an antigen peptide-immobilized chip, and allowed to interact to each FcγR diluted with running buffer. To regenerate and repeatedly use the chip, the antibodies captured on the chip were washed off by reacting 10 mM glycine-HCl, pH 1.5.

FcγRIIb = target: T2, FcγRIIb; test: as above
Experimental: as §1, §2

FcγRIIa R [2] = target: T1, FcγRIIa R; test: ratio of He/Con_2aR to He/Con_2b (binding to FcγRIIb as reference); SPR
[3] = target: T3, FcγRIIa R (extracellular domain, His …); test: SPR (Biacore), relative binding, control GpH7-A5/GpH7-B3/GpL16-k0 = 100
Experimental: as §2

Row | Binder | He/Con_2aR (IIaR binding relative to GpH7-A5/GpH7-B3/GpL16-k0) (FcγRIIa R [1]) | He/Con_2b (IIb binding relative to GpH7-A5/GpH7-B3/GpL16-k0) (FcγRIIb) | He_2aR/2b (IIaR/IIb) (FcγRIIa R [2]) | He/Con_2aR [3]
1 | GpH7-A5/GpH7-B3 variant P329_01G/GpL16-k0 (antibody, human IgG1, kappa, Heterodimerized anti-glypican-3 IgG1 antibody; alteration only in the GpH7-B3 H chain; position in EU numbering; also called He Ab) heavy 1: not shown heavy 2: not shown light: DIVMTQSPLSLPVTPGEPASISCQASESLVHSNRNTYLHWYLQKPGQSPQLLIYKVSNRFSGVPDRFSGSGSGTDFTLKISRVEAEDVGVYYCSQNTHVPPTFGQGTKVEIERTVAAPSVFIFPPSDEQLKSGTASVVCLLNNFYPREAKVQWKVDNALQSGNSQESVTEQDSKDSTYSLSSTLTLSKADYEKHKVYACEVTHQGLSSPVTKSFNRGEC | 55 % of control (control = 100) | 41.7 % of control (control = 100) | 1.32 | –
2 | GpH7-A5/GpH7-B3 variant T335_08L/GpL16-k0 (antibody, human IgG1, kappa, heterodimerized; also called He Ab) heavy 1: not shown heavy 2: not shown light: DIVMTQSPLSLPVTPGEPASISCQASESLVHSNRNTYLHWYLQKPGQSPQLLIYKVSNRFSGVPDRFSGSGSGTDFTLKISRVEAEDVGVYYCSQNTHVPPTFGQGTKVEIERTVAAPSVFIFPPSDEQLKSGTASVVCLLNNFYPREAKVQWKVDNALQSGNSQESVTEQDSKDSTYSLSSTLTLSKADYEKHKVYACEVTHQGLSSPVTKSFNRGEC | – | – | – | 108 % of control
3 | GpH7-A5/GpH7-B3 variant T335_18N/GpL16-k0 (antibody, human IgG1, kappa, heterodimerized; also called He Ab) heavy 1: not shown heavy 2: not shown light: DIVMTQSPLSLPVTPGEPASISCQASESLVHSNRNTYLHWYLQKPGQSPQLLIYKVSNRFSGVPDRFSGSGSGTDFTLKISRVEAEDVGVYYCSQNTHVPPTFGQGTKVEIERTVAAPSVFIFPPSDEQLKSGTASVVCLLNNFYPREAKVQWKVDNALQSGNSQESVTEQDSKDSTYSLSSTLTLSKADYEKHKVYACEVTHQGLSSPVTKSFNRGEC | – | – | – | 106 % of control
4 | GpH7-A5/GpH7-B3 variant T335_20W/GpL16-k0 (antibody, human IgG1, kappa, heterodimerized; also called He Ab) heavy 1: not shown heavy 2: not shown light: DIVMTQSPLSLPVTPGEPASISCQASESLVHSNRNTYLHWYLQKPGQSPQLLIYKVSNRFSGVPDRFSGSGSGTDFTLKISRVEAEDVGVYYCSQNTHVPPTFGQGTKVEIERTVAAPSVFIFPPSDEQLKSGTASVVCLLNNFYPREAKVQWKVDNALQSGNSQESVTEQDSKDSTYSLSSTLTLSKADYEKHKVYACEVTHQGLSSPVTKSFNRGEC | – | – | – | 109 % of control
5 | GpH7-A5/GpH7-B3 variant A330_03V/GpL16-k0 (antibody, human IgG1, kappa, Heterodimerized anti-glypican-3 IgG1 antibody; alteration only in the GpH7-B3 H chain; position in EU numbering; also called He Ab) heavy 1: not shown heavy 2: not shown light: DIVMTQSPLSLPVTPGEPASISCQASESLVHSNRNTYLHWYLQKPGQSPQLLIYKVSNRFSGVPDRFSGSGSGTDFTLKISRVEAEDVGVYYCSQNTHVPPTFGQGTKVEIERTVAAPSVFIFPPSDEQLKSGTASVVCLLNNFYPREAKVQWKVDNALQSGNSQESVTEQDSKDSTYSLSSTLTLSKADYEKHKVYACEVTHQGLSSPVTKSFNRGEC | 74.9 % of control (control = 100) | 52.4 % of control (control = 100) | 1.43 | –
6 | GpH7-A5/GpH7-B3 variant A330_08L/GpL16-k0 (antibody, human IgG1, kappa, Heterodimerized anti-glypican-3 IgG1 antibody; alteration only in the GpH7-B3 H chain; position in EU numbering; also called He Ab) heavy 1: not shown heavy 2: not shown light: DIVMTQSPLSLPVTPGEPASISCQASESLVHSNRNTYLHWYLQKPGQSPQLLIYKVSNRFSGVPDRFSGSGSGTDFTLKISRVEAEDVGVYYCSQNTHVPPTFGQGTKVEIERTVAAPSVFIFPPSDEQLKSGTASVVCLLNNFYPREAKVQWKVDNALQSGNSQESVTEQDSKDSTYSLSSTLTLSKADYEKHKVYACEVTHQGLSSPVTKSFNRGEC | 88.8 % of control (control = 100) | 70.5 % of control (control = 100) | 1.26 | –
7 | GpH7-A5/GpH7-B3 variant T335_19Q/GpL16-k0 (antibody, human IgG1, kappa, heterodimerized; also called He Ab) heavy 1: not shown heavy 2: not shown light: DIVMTQSPLSLPVTPGEPASISCQASESLVHSNRNTYLHWYLQKPGQSPQLLIYKVSNRFSGVPDRFSGSGSGTDFTLKISRVEAEDVGVYYCSQNTHVPPTFGQGTKVEIERTVAAPSVFIFPPSDEQLKSGTASVVCLLNNFYPREAKVQWKVDNALQSGNSQESVTEQDSKDSTYSLSSTLTLSKADYEKHKVYACEVTHQGLSSPVTKSFNRGEC | – | – | – | 106 % of control
8 | GpH7-A5/GpH7-B3 variant Y300_05P/GpL16-k0 (antibody, human IgG1, kappa, Heterodimerized anti-glypican-3 IgG1 antibody; alteration only in the GpH7-B3 H chain; position in EU numbering; also called He Ab) heavy 1: not shown heavy 2: not shown light: DIVMTQSPLSLPVTPGEPASISCQASESLVHSNRNTYLHWYLQKPGQSPQLLIYKVSNRFSGVPDRFSGSGSGTDFTLKISRVEAEDVGVYYCSQNTHVPPTFGQGTKVEIERTVAAPSVFIFPPSDEQLKSGTASVVCLLNNFYPREAKVQWKVDNALQSGNSQESVTEQDSKDSTYSLSSTLTLSKADYEKHKVYACEVTHQGLSSPVTKSFNRGEC | 10.8 % of control (control = 100) | – | 1.47 | –
